Data as given in patent publication US20190275081A1 (published 2019).

T1: NY-ESO-1 peptide on HLA-A*02:01 (human)
T1 peptide: SLLMWITQC


Key:
[1] = biological target: T1, NY-ESO-1 peptide on HLA-A*02:01; assay: cytokine release
[2] = biological target: T1, NY-ESO-1 peptide on HLA-A*02:01; assay: killing

| binding result [1] | Binder | binding result [2] |
| --- | --- | --- |
| recognises | JD (TCR, V domains shown) Valpha: QKEVEQNSGPLSVPEGAIASLNCTYSDRGSQSFFWYRQYSGKSPELIMFIYSNGDKEDGRFTAQLNKASQYVSLLIRDSQPSDSATYLCAVGATNKLIFGTGTLLAVQP Vbeta: EAGVTQFPSHSVIEKGQTVTLRCDPISGHDNLYWYRRVMGKEIKFLLHFVKESKQDESGMPNNRFLAERTGGTYSTLKVQPAELEDSGVYFCASSQAYGTEAFFGQGTRLTVV |  |
|  | 19305DP (TCR, V domains shown) Valpha: SQQGEEDPQALSIQEGENATMNCSYKTSINNLQWYRQNSGRGLVHLILIRSNEREKHSGRLRVTLDTSKKSSSLLITASRAADTASYFCATDGGGTLTFGKGTMLLVSP Vbeta: DAGVIQSPRHEVTEMGQEVTLRCKPISGHDYLFWYRQTMMRGLELLIYFNNNVPIDDSGMPEDRFSAKMPNASFSTLKIQPSEPRDSAVYFCASKWGGTEAFFGQGTRLTVV | recognises |
|  | AL (TCR, V domains shown) Valpha: QKEVEQNSGPLSVPEGAIASLNCTYSDRGSQSFFWYRQYSGKSPELIMSIYSNGDKEDGRFTAQLNKASQYVSLLIRDSQPSDSATYLCAVGGLTSSNTGKLIFGQGTTLQVKP Vbeta: DVKVTQSSRYLVKRTGEKVFLECVQDMDHENMFWYRQDPGLGLRLIYFSYDVKMKEKGDIPEGYSVSREKKERFSLILESASTNQTSMYLCASSNQIYGYTFGSGTRLTVV | recognises |
